Experimental findings from paper PMC9646744, “Structural dynamics of AAA + ATPase Drg1 and mechanism of benzo-diazaborine inhibition” (Nature Communications, 2022) are described below.

The stoichiometry N is a count of units in the complex or per binding partner.

Series [1] concerns the molecule itself. Nature of the series: negative-staining electron microscopy; Drg1 hexamers assembled in vitro with ADP, AMPPNP, ADP/AMPPNP/benzo-diazaborine or ATP/benzo-diazaborine; 0.02 mg/mL, 2% uranyl acetate, carbon-coated copper grids.
Series [2] concerns the molecule itself. Nature of the series: cryo-EM structure; Drg1 E346Q/E617Q with ATP; GraFix (glycerol gradient with 0-0.05% glutaraldehyde); 50 mM HEPES-KOH pH 6.8, 150 mM KCl, 5 mM MgCl2, 1 mM DTT, 1 mM nucleotide; protomer with protomer in the hexamer.

B1: Drg1 (wild type, S. cerevisiae) (enzyme, UniProt P32794 1-780, looked up)
chain: MAPKSSSSGSKKKSSASSNSADAKASKFKLPAEFITRPHPSKDHGKETCTAYIHPNVLSSLEINPGSFCTVGKIGENGILVIARAGDEEVHPVNVITLSTTIRSVGNLILGDRLELKKAQVQPPYATKVTVGSLQGYNILECMEEKVIQKLLDDSGVIMPGMIFQNLKTKAGDESIDVVITDASDDSLPDVSQLDLNMDDMYGGLDNLFYLSPPFIFRKGSTHITFSKETQANRKYNLPEPLSYAAVGGLDKEIESLKSAIEIPLHQPTLFSSFGVSPPRGILLHGPPGTGKTMLLRVVANTSNAHVLTINGPSIVSKYLGETEAALRDIFNEARKYQPSIIFIDEIDSIAPNRANDDSGEVESRVVATLLTLMDGMGAAGKVVVIAATNRPNSVDPALRRPGRFDQEVEIGIPDVDARFDILTKQFSRMSSDRHVLDSEAIKYIASKTHGYVGADLTALCRESVMKTIQRGLGTDANIDKFSLKVTLKDVESAMVDIRPSAMREIFLEMPKVYWSDIGGQEELKTKMKEMIQLPLEASETFARLGISAPKGVLLYGPPGCSKTLTAKALATESGINFLAVKGPEIFNKYVGESERAIREIFRKARSAAPSIIFFDEIDALSPDRDGSSTSAANHVLTSLLNEIDGVEELKGVVIVAATNRPDEIDAALLRPGRLDRHIYVGPPDVNARLEILKKCTKKFNTEESGVDLHELADRTEGYSGAEVVLLCQEAGLAAIMEDLDVAKVELRHFEKAFKGIARGITPEMLSYYEEFALRSGSSS
notes: Drg1, type II AAA+ ATPase encoded by AFG2, S. cerevisiae (genome of strain BY4741), full length; Hexamers assembled in vitro with ADP, AMPPNP, ADP/AMPPNP/benzo-diazaborine or ATP/benzo-diazaborine; stabilised by GraFix (glutaraldehyde) for cryo-EM; also called Drg1^WT; Drg1 hexamer; source: E. coli Transetta (DE3), purified (Ni-NTA, TEV cleavage, Mono Q, size-exclusion chromatography); not shown: …
In the case of B1, the “stoichiometry N” value in series [1] was found to be 6.

B2: Drg1 E346Q/E617Q double mutant (Walker B motifs of D1 and D2) (enzyme, S. cerevisiae, UniProt P32794 1-780, looked up)
chain: MAPKSSSSGSKKKSSASSNSADAKASKFKLPAEFITRPHPSKDHGKETCTAYIHPNVLSSLEINPGSFCTVGKIGENGILVIARAGDEEVHPVNVITLSTTIRSVGNLILGDRLELKKAQVQPPYATKVTVGSLQGYNILECMEEKVIQKLLDDSGVIMPGMIFQNLKTKAGDESIDVVITDASDDSLPDVSQLDLNMDDMYGGLDNLFYLSPPFIFRKGSTHITFSKETQANRKYNLPEPLSYAAVGGLDKEIESLKSAIEIPLHQPTLFSSFGVSPPRGILLHGPPGTGKTMLLRVVANTSNAHVLTINGPSIVSKYLGETEAALRDIFNEARKYQPSIIFIDQIDSIAPNRANDDSGEVESRVVATLLTLMDGMGAAGKVVVIAATNRPNSVDPALRRPGRFDQEVEIGIPDVDARFDILTKQFSRMSSDRHVLDSEAIKYIASKTHGYVGADLTALCRESVMKTIQRGLGTDANIDKFSLKVTLKDVESAMVDIRPSAMREIFLEMPKVYWSDIGGQEELKTKMKEMIQLPLEASETFARLGISAPKGVLLYGPPGCSKTLTAKALATESGINFLAVKGPEIFNKYVGESERAIREIFRKARSAAPSIIFFDQIDALSPDRDGSSTSAANHVLTSLLNEIDGVEELKGVVIVAATNRPDEIDAALLRPGRLDRHIYVGPPDVNARLEILKKCTKKFNTEESGVDLHELADRTEGYSGAEVVLLCQEAGLAAIMEDLDVAKVELRHFEKAFKGIARGITPEMLSYYEEFALRSGSSS
notes: Drg1, type II AAA+ ATPase encoded by AFG2, S. cerevisiae, full length, with the Walker B mutations E346Q and E617Q; Incubated with 5 mM ATP before size-exclusion chromatography; the atomic model covers residues 29 to 777; also called mutant Drg1; double mutant Drg1; source: E. coli Transetta (DE3), purified (Ni-NTA, TEV cleavage, Mono Q, size-exclusion chromatography); not shown: His6, …
As for B2, in series [2], the “stoichiometry N” value is 6.
